# Data published in article PMC7723414, “Cryo-EM structure of the calcium release-activated calcium channel Orai in an open conformation” (eLife, 2020).
# B1: 19B5 Fab antibody fragment (Fab, V domains shown)
# VH: EVQLVESGGGLVQPKGSLKLSCAASGFTFNTYAMHWVRQAPGKGLEWVARIRTKSNNYATYYADSVKDRFTISRDDSQSMLYLQMNNLKTEDTAMYYCVRQKYGNYFDYWGQGTTLTVSS
# VL: DVVMTQSQKFMSTSVGDRVSVTCKASQNVGINVAWYQQKPGQSPKALINSASYRNSGVPDRFTGGGSGTDFTLTINNVQSEDLAEYFCQQCNSYPLTFGAGTKLELR
# notes: the deposited model PDB 7KR5 holds the variable domains; mouse IgG1; Fab of the mouse monoclonal IgG1 19B5; source: IgG from mouse hybridoma cells, purified by ion exchange, cleaved with papain; Fab purified (Mono S, SEC)
# B2: monoclonal antibody 19B5 (mouse IgG1) (antibody, V domains shown)
# VH: B1 VH
# VL: B1 VL
# notes: as the heavy chain of m2 (variable domain in PDB 7KR5), whole mouse IgG1 heavy chain; as the light chain of m2 (variable domain in PDB 7KR5); IgG1; also called 19B5 antibody; Drosophila Orai-19B5 (mouse monoclonal); source: mouse hybridoma cells, purified by ion exchange chromatography
# B3: Orai_(H206A) (Drosophila melanogaster Orai, amino acids 133-341, with C224S, C283T and H206A) (domain or fragment, UniProt Q9U6B8 133-341, looked up)
# chain: MSQSGEDLHSPTYLSWRKLQLSRAKLKASSKTSALLSGFAMVAMVEVQLDHDTNVPPGMLIAFAICTTLLVAVAMLALMISTCILPNIETVSNLHSISLVHESPHERLHWYIETAWAFSTLLGLILFLLEIAILCWVKFYDLSPPAAWSATVVLIPVMIIFMAFAIHFYRSLVSHKYEVTVSGIRELEMLKEQMEQDHLEHHNNIRNNG
# notes: construct identical to the one of Hou et al., 2018; Hexameric channel; The atomic model holds amino acids 156-305 except 217-239; also called H206A Orai; purified Orai_(H206A)
# Key:
# [1] = target: T1, Orai_(H206A) (Drosophila melanogaster Orai, amino acids 133-341, with C224S, C283T and H206A) (Drosophila melanogaster, UniProt Q9U6B8, C224S | C283T | H206A); assay: cryo-EM structure; Orai_(H206A) in amphipol A8-35 combined with 19B5 Fab at a molar ratio of 0.78:1 (Fab to Orai monomer), 5 mM CaCl2, 150 mM NaCl, 20 mM Tris pH 8.5, on ice 30 min; single particle analysis; conditions: both partners purified
# T1 construct: construct identical to the one of Hou et al., 2018; Hexameric channel; The atomic model holds amino acids 156-305 except 217-239; also called H206A Orai; purified Orai_(H206A)
# [2] = target: T2, wild-type Orai (amino acids 120-351) with N-terminal mCherry tag (Drosophila melanogaster, UniProt Q9U6B8); assay: live-cell ELISA; intact HEK293 cells transfected with mCherry-tagged Orai constructs or vector; purified 19B5 IgG1 1 uM, 20 min, room temperature; HRP-conjugated secondary antibody, TMB, absorbance at 450 nm; conditions: one partner purified
# T2 construct: Orai, Drosophila melanogaster, amino acids 120-351; Construct reported in Hou et al., 2018; vector modified from pNGFP-EU; also called Orai-mCherry; source: HEK293, transfected, on intact cells; not shown: mCherry, N-terminal, kept
# T2 sequence (Q9U6B8 120-351): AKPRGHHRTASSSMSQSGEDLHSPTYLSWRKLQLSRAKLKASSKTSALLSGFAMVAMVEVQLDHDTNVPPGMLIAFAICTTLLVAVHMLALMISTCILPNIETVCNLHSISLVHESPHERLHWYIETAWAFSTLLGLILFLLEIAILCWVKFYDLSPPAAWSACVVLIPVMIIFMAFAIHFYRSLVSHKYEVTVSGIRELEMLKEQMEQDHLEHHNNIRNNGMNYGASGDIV
# [3] = target: the molecule itself; assay: cryo-EM structure; Orai_(H206A) in amphipol A8-35 combined with 19B5 Fab at a molar ratio of 0.78:1 (Fab to Orai monomer), 5 mM CaCl2, 150 mM NaCl, 20 mM Tris pH 8.5, on ice 30 min; single particle analysis
binder,measurement,setting,value
B1,stoichiometry N,[1],≤ 3 Fabs per channel
B2,binding result,[2],binds
B3,stoichiometry N,[3],6 subunits per channel
